B1: commercial plasma-derived C1-INH, further purified by ion-exchange chromatography (natural protein, UniProt P05155 23-500, looked up)
chain: NPNATSSSSQDPESLQDRGEGKVATTVISKMLFVEPILEVSSLPTTNSTTNSATKITANTTDEPTTQPTTEPTTQPTIQPTQPTTQLPTDSPTQPTTGSFCPGPVTLCSDLESHSTEAVLGDALVDFSLKLYHAFSAMKKVETNMAFSPFSIASLLTQVLLGAGENTKTNLESILSYPKDFTCVHQALKGFTTKGVTSVSQIFHSPDLAIRDTFVNASRTLYSSSPRVLSNNSDANLELINTWVAKNTNNKISRLLDSLPSDTRLVLLNAIYLSAKWKTTFDPKKTRMEPFHFKNSVIKVPMMNSKKYPVAHFIDQTLKAKVGQLQLSHNLSLVILVPQNLKHRLEDMEQALSPSVFKAIMEKLEMSKFQPTLLTLPRIKVTTSQDMLSIMEKLEFFDFSYDLNLCGLTEDPDLQVSAMQHQTVLELTETGVEAAAASAISVARTLLVFEVQQPFLFVLWDQQHKFPVFMGRVYDPRA
notes: source: bought: commercial plasma-derived C1-INH, further purified by ion-exchange chromatography

Tests used:
[1] = target: human bradykinin B2 receptor mutant #2 (found in HAE patients) (human) (UniProt P30411); test: radioligand binding; competition binding with radiolabeled BK (3H-BK); HEK293T cells transiently transfected with human wild-type or mutant B2R
[2] = target: human bradykinin B2 receptor mutant #1 (found in HAE patients) (human) (UniProt P30411); test: as above
[3] = target: T1, commercially available active FXI (UniProt P03951 19-625); test: SDS-PAGE of enzyme/C1-INH complexes; molar equivalent quantities of active enzymes and of C1-INH; details: both partners purified
T1 construct: active coagulation factor XI (cleaved into disulfide-linked heavy and light chains); also called active factor XI; source: bought: commercially available
T1 sequence (P03951 19-625): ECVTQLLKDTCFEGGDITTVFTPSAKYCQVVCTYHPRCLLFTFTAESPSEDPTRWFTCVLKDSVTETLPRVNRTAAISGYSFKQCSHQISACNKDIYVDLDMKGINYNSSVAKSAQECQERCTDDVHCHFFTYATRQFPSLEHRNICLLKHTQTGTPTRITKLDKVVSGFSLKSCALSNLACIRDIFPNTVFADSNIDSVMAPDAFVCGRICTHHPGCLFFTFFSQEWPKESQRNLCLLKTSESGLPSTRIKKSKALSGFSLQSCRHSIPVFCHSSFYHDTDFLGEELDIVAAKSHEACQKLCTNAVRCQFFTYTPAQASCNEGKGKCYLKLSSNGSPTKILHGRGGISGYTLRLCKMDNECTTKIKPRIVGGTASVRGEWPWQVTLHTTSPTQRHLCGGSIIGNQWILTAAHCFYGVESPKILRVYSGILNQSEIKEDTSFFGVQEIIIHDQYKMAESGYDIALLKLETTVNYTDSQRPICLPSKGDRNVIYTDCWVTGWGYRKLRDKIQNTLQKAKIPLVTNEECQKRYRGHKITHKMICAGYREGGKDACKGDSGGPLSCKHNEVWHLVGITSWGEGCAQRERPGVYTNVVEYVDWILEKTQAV

Chain of human bradykinin B2 receptor mutant #2 (found in HAE patients) (human) (P30411 whole entry, stated change not applied): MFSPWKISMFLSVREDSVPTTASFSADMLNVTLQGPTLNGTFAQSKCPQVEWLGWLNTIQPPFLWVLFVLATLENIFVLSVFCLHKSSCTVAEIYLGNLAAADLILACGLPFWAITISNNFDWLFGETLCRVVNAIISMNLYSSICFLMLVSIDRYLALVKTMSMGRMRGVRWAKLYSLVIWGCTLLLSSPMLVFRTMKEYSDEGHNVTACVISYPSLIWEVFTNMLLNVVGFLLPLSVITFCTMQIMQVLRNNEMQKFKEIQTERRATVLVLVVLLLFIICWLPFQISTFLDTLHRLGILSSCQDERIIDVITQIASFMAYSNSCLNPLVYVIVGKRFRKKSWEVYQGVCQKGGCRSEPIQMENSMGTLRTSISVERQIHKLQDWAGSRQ
Chain of human bradykinin B2 receptor mutant #1 (found in HAE patients) (human) (P30411 whole entry, change not shown): as the sequence (P30411 whole entry, stated change not applied) above

Molecule	affinity [1] [nM]	affinity [2] [nM]	binding result [3]
Bradykinin (from UniProt P01042 381-389) (peptide)	0.46	0.35	–
B1	–	–	binds
